Target: ATXN2 (UniProt Q99700 1-1313, limits assumed)
Test: fluorescence microscopy, co-localization in cells

ATXN2, sequence (Q99700 whole entry): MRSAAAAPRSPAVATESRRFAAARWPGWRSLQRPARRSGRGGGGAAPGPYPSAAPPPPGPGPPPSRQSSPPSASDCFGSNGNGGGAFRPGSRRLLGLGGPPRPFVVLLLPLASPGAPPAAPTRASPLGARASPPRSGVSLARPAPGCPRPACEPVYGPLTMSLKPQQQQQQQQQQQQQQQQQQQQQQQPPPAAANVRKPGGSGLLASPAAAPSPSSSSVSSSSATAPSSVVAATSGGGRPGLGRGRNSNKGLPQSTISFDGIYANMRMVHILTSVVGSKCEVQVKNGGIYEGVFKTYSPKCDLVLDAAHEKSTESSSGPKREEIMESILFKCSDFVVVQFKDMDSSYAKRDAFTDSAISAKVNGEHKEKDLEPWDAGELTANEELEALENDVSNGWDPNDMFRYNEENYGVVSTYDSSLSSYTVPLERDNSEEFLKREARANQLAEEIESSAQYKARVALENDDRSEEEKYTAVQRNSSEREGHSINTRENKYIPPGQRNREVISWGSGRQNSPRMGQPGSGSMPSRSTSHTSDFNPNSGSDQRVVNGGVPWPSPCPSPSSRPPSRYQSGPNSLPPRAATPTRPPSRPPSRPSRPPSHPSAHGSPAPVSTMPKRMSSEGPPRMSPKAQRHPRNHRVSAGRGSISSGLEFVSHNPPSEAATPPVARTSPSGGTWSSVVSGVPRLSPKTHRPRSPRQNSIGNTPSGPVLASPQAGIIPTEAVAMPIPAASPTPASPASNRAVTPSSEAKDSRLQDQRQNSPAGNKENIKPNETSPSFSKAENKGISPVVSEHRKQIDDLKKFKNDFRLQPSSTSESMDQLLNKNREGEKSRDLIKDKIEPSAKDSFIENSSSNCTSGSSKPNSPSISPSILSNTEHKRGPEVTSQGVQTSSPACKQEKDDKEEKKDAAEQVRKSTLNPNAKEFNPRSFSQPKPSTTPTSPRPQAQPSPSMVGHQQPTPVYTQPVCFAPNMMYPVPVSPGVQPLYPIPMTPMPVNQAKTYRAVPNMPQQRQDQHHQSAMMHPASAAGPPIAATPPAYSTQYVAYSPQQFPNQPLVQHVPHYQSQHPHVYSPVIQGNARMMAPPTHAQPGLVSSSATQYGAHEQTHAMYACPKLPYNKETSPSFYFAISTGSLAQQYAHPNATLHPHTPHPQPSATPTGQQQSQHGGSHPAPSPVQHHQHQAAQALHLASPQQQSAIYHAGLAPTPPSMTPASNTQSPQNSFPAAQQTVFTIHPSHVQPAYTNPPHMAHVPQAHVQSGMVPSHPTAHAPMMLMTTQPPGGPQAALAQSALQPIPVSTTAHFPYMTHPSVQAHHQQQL

B1: GFP-PopTag (other)
chain: GGGGSGGGGSGGGGSGGGGSEVAEQLVGVSAASAAASAFGSLSSALLMPKDGRTLEDVVRELLRPLLKEWLDQNLPRIVETKVEEEVQRISRGRGA
notes: also called GFP-PopTag condensates; not shown: GFP; constructs subcloned into pcDNA3.1+N-eGFP
  binding result: no binding
